Assay results taken from patent publication US20220072101A1, “HARNESSING INFLAMMATION TO TREAT NEURODEVELOPMENTAL DISORDERS” (President and Fellows of Harvard College, priority 2019, published 2022).
Entries after “also recorded” stand apart in the source; their conditions may differ. Where a name gives a salt, the structure may show the parent alone.

Columns and labels:
Assay type in all cases: in vivo, mouse
MIA offspring = experiment: Three-chamber social approach assay in PBS and MIA offspring; settings: for sociability phenotype after IL-17a into S1DZ: MIA offspring, IL-17a 50 ng/side bilaterally into S1DZ, 4 hours, no LPS
Procedure: Adult male mice were assayed for sociability using a three-chamber social approach assay. The arena was constructed of white acrylic (50 cm×35 cm×30 cm). Wire cups (Spectrum Diversified®) were placed in the back left and right corner of the arena beneath water-filled 1 L bottles (Nalgene®). On Day 0, mice were habituated to the arena for 10 min. Immediately following habituation, mice were singly housed. On Day 1 (Pre), mice were placed in the center of the arena and allowed to freely explore. Following 10 min, mice were confined to the center of the arena. An inanimate object (rubber stopper) or a male conspecific were placed beneath the wire cups. Placement of the inanimate object and social target were alternated. Mice were then allowed to freely explore the arena for 10 min. Interaction time was defined as time spent in the areas circumscribing the wire cups (<2 cm). Sociability was defined as interaction time with the social target divided by total interaction time and expressed as a percentage. For experiments involving LPS injections, mice were injected with LPS ([…], i.p., L2630, Sigma) on Day 2 (Test), four hours prior to testing. […]
Adult male mice were implanted with cannula into S1DZ and allowed to recover for >2 weeks prior to behavioral experiments. On Day 1 (Pre) mice were assayed for sociability. On Day 2 (Test), mice were anesthetized briefly using isoflurane and either vehicle or IL-17a (50 ng/side in 1 μl at a rate of 180 nl/min, 7956-ML/CF, R&D®) was administered bilaterally into S1DZ through 250 μm-projecting injector tips (PlasticsOne®). Four hours after vehicle or IL-17a administration, mice were assayed for sociability. Cannula placements were verified using histology.
(§1) Adult male mice were assayed for sociability using a three-chamber social approach assay. The arena was constructed of white acrylic (50 cm×35 cm×30 cm). Wire cups (Spectrum Diversified®) were placed in the back left and right corner of the arena beneath water-filled 1 L bottles (Nalgene®). On day 0, mice were habituated to the arena for 10 min. Immediately following habituation, mice were singly housed. On day 1 (Pre), mice were placed in the center of the arena and allowed to freely explore. Following 10 min, mice were confined to the center of the arena. An inanimate object (rubber stopper) or a male conspecific were placed beneath the wire cups. Placement of the inanimate object and social target were alternated. Mice were then allowed to freely explore the arena for 10 min. Interaction time was defined as time spent in the areas circumscribing the wire cups (<2 cm). Sociability was defined as interaction time with the social target divided by total interaction time and expressed as a percentage. For experiments involving LPS injections, mice were injected with either saline (Veh) or LPS ([…], i.p., L2630, Sigma) on day 2 (Test), four hours prior to testing. For the experiment assaying sociability 72 hrs following LPS injection, mice used for 4 hr LPS sociability experiments were tested for sociability again at 72 hrs.
Adult male Vgat-Cre MIA offspring were bilaterally injected with virus encoding the inhibitory DREADD receptor fused to mCherry into the vLPO. Following >3 weeks of recovery, mice were assayed on the three-chamber social approach assay outlined above. Baseline sociability was assayed on day 1 (Pre). On day 2 and day 3, mice were injected with either Saline (Veh) or CNO (1.5 mg/kg i.p., BML-NS105, Enzo Life Sciences®), two hours prior to initiation of behavior. Injection order was counterbalanced. Following behavioral experiments, post-mortem histology was used to confirm mCherry expression within the vLPO. For experiments assaying the effect of CNO and LPS injection in Vgat-Cre PBS and MIA offspring that have not undergone surgery, baseline sociability was assessed on day 1. On day 2 and 3 mice received counterbalanced injections of CNO or vehicle. On day 4, mice were injected with LPS. […]

[1] = test system: segmented filamentous bacteria (SFB); experiment: SFB levels by 16S rRNA qPCR of fecal pellets and SEM of ileum after antibiotics; settings: Taconic-derived mice; vancomycin 2.5 mg/kg or metronidazole 10 mg/kg orally every two days
Procedure: For SFB-gavaging experiments, four fecal pellets of SFB mono-colonized mice were dissolved in 20 ml sterile PBS and filtered through a 100-μm cell strainer. 200 μl of fecal suspensions were gavaged via oral route into 8 to 9-week-old male cross-fostered mice. Control mice were gavaged with PBS. The SFB colonization was tested on day 7 following SFB-gavaging. For antibiotics treatments, Taconic-derived male mice were orally gavaged with vancomycin hydrochloride (Fisher) (2.5 mg/kg) or metronidazole (10 mg/kg) (Sigma Aldrich®) every two days, starting 21 days before behavioral test. Mouse fecal pellets were collected and stored at −80° C. before and after vancomycin and metronidazole treatments.
Bacterial genomic DNA was isolated from the fecal pellets of mice with phenol-chloroform extraction. qPCR was performed to quantify relative abundance of segmented filamentous bacteria (SFB). […] Data were analysed using Roche (Lightcylcler^R 96 SW1.1) Software and the relative quantification (fold) of SFB DNA was performed using the ΔΔCt method.
Terminal ileum tissues from mice (8-10 weeks old) were cut open and fixed with 2.5% glutaraldehyde in 0.1 M cacodylate buffer (pH 7.4) overnight and processed for standard scanning electron microscopy. All samples were analysed on a Hitachi S-4800 Type II Field Emission Scanning Electron Microscope™.

IL-17a, IFNγ, IL-6, TNFα = experiment: ELISA of cytokines in plasma and brain lysate; settings: LPS-injected MIA offspring; antibiotic by oral gavage
Procedure: Mice were put under general anesthesia by intraperitoneal injection of Ketamine (100 mg/kg, i.p.) and xylazine (10 mg/kg, i.p.). Blood was collected by retro-orbital puncture, using clean heparinized microhematocrit capillary tubes (Fisher Scientific®). Once the tube was withdrawn, slight pressure was applied on the eyelid with gauze to prevent further bleeding. All blood samples were centrifuged at 15,000 g for 3 min at room temperature. For quantification of cytokines in brain lysate, samples were disrupted in cold lysis buffer with protease inhibitor cocktail for 60 seconds using the Micro-Homogenizer (VWR International) and centrifuged for 30 min at 15,000×g to remove insoluble precipitates. All samples were stored at −80° C. until further analysis. Plasma and brain lysate cytokines concentrations were measured using an ELISA kit (Biolgened™), following the manufacturer's instructions.
After four hours of vehicle or LPS administration, mice were anesthetized by intraperitoneal injection of fatal plus (100 mg/kg). All blood samples were centrifuged at 10,000 g for 10 min at 4 C. All samples were stored at −80° C. until further analysis. Cytokines concentrations in plasma were measured using an ELISA kit (IFN-γ; 430804, TNF-α; 430904, IL-6; 431304, IL-17a; 432504, Biolegend®), following the manufacturer's instructions.

[2] = test system: Cntnap2, Fmr1, and Shank3 mutant mice; experiment: Three-chamber social approach assay in monogenic mutant mice; settings: Cntnap2 and Fmr1 (monogenic) mutant mice, IL-17a 50 ng/side bilaterally into S1DZ, 4 hours
Procedure: All experiments were performed according to Guide for the Care and Use of Laboratory Animals and were approved by the National Institutes of Health and the Committee on Animal Care at Massachusetts Institute of Technology. C57BL/6 were purchased from Taconic Biosciences for generating PBS and MIA offspring. Vgat-Cre (028862) were purchased from Jackson Laboratories and inbred. For monogenic experiments, C57BL/6, Cntnap2 (017482), Fmr1 (003025), and Shank3 (017688) mice were purchased from Jackson Laboratories and inbred after colonizing with SFB from donor mice. IL-17Ra^fl/fl and IL-17RaKO were previously described^24,25. All mice were males aged 2-5 months, unless otherwise specified.
as §1, with “hrs. […]” for “hrs.”

## C[N+]1([O-])CCN(C2=Nc3cc(Cl)ccc3Nc3ccccc32)CC1 [CNO]
MIA offspring; Vgat-Cre MIA offspring without surgery, CNO 1.5 mg/kg i.p. or LPS
  sociability in MIA Vgat-Cre mice: unaffected by CNO treatment

## CN[C@H](CC(C)C)C(=O)N[C@H]1C(=O)N[C@@H](CC(N)=O)C(=O)N[C@H]2C(=O)N[C@H]3C(=O)N[C@H](C(=O)N[C@H](C(=O)O)c4cc(O)cc(O)c4-c4cc3ccc4O)[C@H](O)c3ccc(c(Cl)c3)Oc3cc2cc(c3O[C@@H]2O[C@H](CO)[C@@H](O)[C@H](O)[C@H]2O[C@H]2C[C@](C)(N)[C@H](O)[C@H](C)O2)Oc2ccc(cc2Cl)[C@H]1O [vancomycin, vancomycin hydrochloride]
MIA offspring; LPS-injected MIA offspring, antibiotic by oral gavage every two days from 21 days before test
  LPS-induced reversal of the sociability phenotype after antibiotic pretreatment: prevented the reversal of the sociability phenotype
[1]
  intestinal colonization by SFB (qPCR of fecal samples): severely reduced
IL-17a, IFNγ, IL-6, TNFα
  LPS-induced increase in plasma and brain IL-17a and plasma IFNγ after antibiotic pretreatment: suppressed the systemic increase in plasma and brain levels of IL-17a as well as the plasma levels of IFNγ

B1: recombinant IL-17a: recombinant IL-17a protein (7956-ML/CF, R&D) administered bilaterally into S1DZ (protein)
chain: AAIIPQSSACPNTEAKDFLQNVKVNLKVFNSLGAKVSSRRPSDYLNRSTSPWTLHRNEDPDRYPSVIWEAQCRHQRCVNAEGKLDHHMNSVLIQQEILVLKREPESCPFTFRVEKMLVGVGCTCVASIVRQAA
MIA offspring
  sociability phenotype after IL-17a into S1DZ: sufficient to promote sociability in monogenic mutant mice as well as in MIA offspring; also recorded: sufficient to rescue the sociability phenotypes of not only MIA offspring
MIA offspring; listed as IL-17a
  sociability phenotype after IL-17a into S1DZ: sufficient to rescue sociability deficits in MIA offspring; also recorded: rescues sociability deficits in both MIA offspring and monogenic mutant mice
MIA offspring; listed as exogenous IL-17a
  sociability phenotype after IL-17a into S1DZ: rescued sociability deficits
MIA offspring; listed as recombinant IL-17a protein
  sociability phenotype after IL-17a into S1DZ: sufficient to rescue the sociability phenotype of MIA offspring
[2]
  sociability phenotype after IL-17a into S1DZ: sufficient to promote sociability in monogenic mutant mice
[2]; listed as IL-17a
  sociability phenotype after IL-17a into S1DZ: rescues sociability deficits in both MIA offspring and monogenic mutant mice
